The target of this assay is Neisseria meningitidis Hsf (Msf) of strain H44/76, expressed on meningococci (Neisseria meningitidis strain H44/76) (UniProt Q7DDJ2). Kind of assay: ELISA, bacteria preincubated with 25 µg/ml peptide, binding to 2.5 µg/ml immobilised aVn. Background: ELISA stands for enzyme-linked immunosorbent assay.
Sequence of Neisseria meningitidis Hsf (Msf) of strain H44/76, expressed on meningococci (Neisseria meningitidis strain H44/76) (Q7DDJ2 52-591): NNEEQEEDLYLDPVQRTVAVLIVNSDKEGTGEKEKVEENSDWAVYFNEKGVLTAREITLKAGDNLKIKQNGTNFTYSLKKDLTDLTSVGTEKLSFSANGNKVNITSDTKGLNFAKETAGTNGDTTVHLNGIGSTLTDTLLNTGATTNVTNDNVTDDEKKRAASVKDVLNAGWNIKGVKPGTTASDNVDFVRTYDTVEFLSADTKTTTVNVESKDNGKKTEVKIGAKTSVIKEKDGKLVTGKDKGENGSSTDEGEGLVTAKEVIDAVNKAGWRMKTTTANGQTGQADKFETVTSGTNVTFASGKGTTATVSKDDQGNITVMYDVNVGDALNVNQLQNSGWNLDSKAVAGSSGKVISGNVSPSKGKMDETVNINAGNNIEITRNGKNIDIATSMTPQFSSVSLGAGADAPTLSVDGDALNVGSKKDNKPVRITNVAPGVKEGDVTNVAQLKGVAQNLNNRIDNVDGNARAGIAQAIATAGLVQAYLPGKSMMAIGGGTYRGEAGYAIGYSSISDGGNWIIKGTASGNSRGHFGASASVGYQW

Regarding “biotinylated sulphated vitronectin peptide VA-26S (amino acids 43-68)”, the reduction in Msf binding to aVn was 30%.

The values above are taken from US20130171184A1.
